In patent US20220229058A1:
Where no end group is shown, it is not given here.

B1: norovirus-binding peptide of SEQ ID NO: 163 (peptide)
peptide: SVMVTRSLFG
modifications: also: biotinylated, residue not given here, spacer sequence added, letters and position not given here
B2: norovirus-binding peptide of SEQ ID NO: 154 (peptide)
peptide: ECMGRRWMSS
modifications: also: biotinylated, residue not given here, spacer sequence added, letters and position not given here
B3: norovirus-binding peptide of SEQ ID NO: 143 (peptide)
peptide: YVVASKSNRL
modifications: also: biotinylated, residue not given here, spacer sequence added, letters and position not given here
B4: norovirus-binding peptide of SEQ ID NO: 52 (peptide)
peptide: KYRATICHTV
modifications: also: biotinylated, residue not given here, spacer sequence added, letters and position not given here
B5: norovirus-binding peptide of SEQ ID NO: 172 (peptide)
peptide: GCVGDLYCSA
modifications: cysteine pairing not given here; also: biotinylated, residue not given here, spacer sequence added, letters and position not given here
B6: norovirus-binding peptide of SEQ ID NO: 59 (peptide)
peptide: YRRSKSEIFV
modifications: also: biotinylated, residue not given here, spacer sequence added, letters and position not given here
B7: norovirus-binding peptide of SEQ ID NO: 43 (peptide)
peptide: YVIRNSDRHN
modifications: also: biotinylated, residue not given here, spacer sequence added, letters and position not given here
B8: norovirus-binding peptide of SEQ ID NO: 48 (peptide)
peptide: ICSSWFPSVH
modifications: also: biotinylated, residue not given here, spacer sequence added, letters and position not given here
B9: norovirus-binding peptide of SEQ ID NO: 155 (peptide)
peptide: VELFLLTSSC
modifications: also: biotinylated, residue not given here, spacer sequence added, letters and position not given here
B10: norovirus-binding peptide of SEQ ID NO: 150 (peptide)
peptide: VCVDNDISMS
modifications: also: biotinylated, residue not given here, spacer sequence added, letters and position not given here
B11: norovirus-binding peptide of SEQ ID NO: 131 (peptide)
peptide: NFRVPIRFTH
modifications: also: biotinylated, residue not given here, spacer sequence added, letters and position not given here
B12: norovirus-binding peptide of SEQ ID NO: 156 (peptide)
peptide: VVGFGRRSLF
modifications: also: biotinylated, residue not given here, spacer sequence added, letters and position not given here

Assays:
[1] = target: norovirus GII.3 TCH strain virus-like particle (VLP) (norovirus GII.3 TCH strain); assay: BLI (BLItz), biotinylated peptide on SA chip, VLP in solution
[2] = target: norovirus GII.17 Saitama strain virus-like particle (VLP) (norovirus GII.17 Saitama strain); assay: as above

Binder	Kd [1] [µM]	koff [1] [s⁻¹]	kon [1] [M⁻¹ s⁻¹]	Kd [2] [µM]	koff [2] [s⁻¹]	kon [2] [M⁻¹ s⁻¹]
B1	0.00766	0.00786	1.03e+06	0.168	0.0185	110000
B2	0.123	0.0173	141000	–	–	–
B3	0.0135	0.0044	325000	–	–	–
B4	0.0138	0.0103	747000	0.0179	0.0232	1.29e+06
B5	69.3	0.0131	189	–	–	–
B6	0.00887	0.00714	805000	0.383	0.0511	134000
B7	0.0672	0.0793	1.18e+06	234	0.192	822
B8	0.0303	0.0246	810000	0.0766	0.0978	1.28e+06
B9	803	0.0926	115	–	–	–
B10	0.437	0.0118	27000	2510	0.255	–
B11	157	0.262	1660	–	–	–
B12	1.06	0.0713	67300	234	0.0931	398
